# Molecular target: recombinant EBV LMP2A N-terminal cytoplasmic domain (LMP2A-NCD), His6-tagged (Epstein-Barr virus) (UniProt P13285)
# Test: SPR; BIAcore T200; LMP2A-NCD immobilised on Sensor Chip CM5; affibodies flowed at 2.5-20 μM; global fit, one-to-one Langmuir binding model
# Chain of UniProt P13285 (P13285 1-119): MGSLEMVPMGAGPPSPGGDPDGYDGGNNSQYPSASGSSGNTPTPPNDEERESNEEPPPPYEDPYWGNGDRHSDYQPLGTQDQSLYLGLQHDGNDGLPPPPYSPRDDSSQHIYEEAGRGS
substance,measurement,value
ZWT affibody (wild SPA-Z scaffold) (designed binder),koff,5.96e-05 s⁻¹

# Source: PMC7113277
